The target of test [1] is T1, SARS-CoV-2 spike S2 peptide 1149-1167, biotinylated (SARS-CoV-2). As to the kind of experiment: SPR, Fab over captured biotin-peptide, 25 C.
The target of test [2] is T2, SARS-CoV-2 spike S2 peptide 1143-1162, biotinylated (SARS-CoV-2). Put plainly: SPR, Fab over captured biotin-peptide, 25 C.
Test [3] concerns the target T1, SARS-CoV-2 spike S2 peptide 1149-1167, …. As to the kind of experiment: SPR, Fab over captured biotin-peptide, 25 C. This is another data set of the same source.
Test [4] addresses T2, SARS-CoV-2 spike S2 peptide 1143-1162, …. Put plainly: DELFIA on captured biotin-peptide. Details: unit not given beside the values.
The target in test [5] is HIV-1 Env peptide, biotinylated (negative control) (HIV-1). Put plainly: DELFIA on captured biotin-peptide. On the set-up: unit not given beside the values.
Test [6] deals with T1, SARS-CoV-2 spike S2 peptide 1149-1167, …. Put plainly: DELFIA on captured biotin-peptide. Details: unit not given beside the values.

Residue numbers refer to the chain shown, from its start. Read-outs that look alike come from different tables or passages of the source.

Here are results for four molecules from patent US20240360203A1.

B1: AB-1 Fab (Fab, V domains shown)
VH: EVQLVESGAEVKKPGESLKISCKGSGYTFTRYWIGWVRQMPGKGLEWMGIIYPGDSDVRYSPSFQGHVTISADKSISTAYLQWNSLKASDTAMYYCARLPQYCSKGVCYRWFDPWGQGTLVTVSS
VL: EIVLTQSPSSVSASVGDRVTITCRASQGISSWLAWYQQKPGKAPKLLIYAASSLQSGVPSRFSGSGSGTDFTLTISSLQPEDFATYYCQQGHSFPYTFGQGTNLEIK
The molecule B1 gave a Kd in test [1] of 0.925 nM. Further, in test [2], the Kd came to 12.3 nM, the koff came out at 0.037 s⁻¹ and the kon stood at 3e+06 M⁻¹ s⁻¹. Further, in test [3], the Kd was 0.9 nM, the koff was determined as 0.00241 s⁻¹ and the kon turned out to be 2.61e+06 M⁻¹ s⁻¹.

B2: AB-1 (antibody, V domains shown)
VH: B1 VH
VL: B1 VL
Turning to B2, the AUC in test [4] was 3.52e+06; in test [5], 9860; in test [6], 3.27e+06.

B3: Reference Antibody Fab (Fab, V domains shown)
VH: B1 VH with V58T, K105N, Y109Q
VL: B1 VL with H92N
B3 yielded a Kd in test [1] of 5.36 nM. In test [3], this molecule returned a Kd of 5.4 nM, a koff of 0.00498 s⁻¹ and a kon of 929000 M⁻¹ s⁻¹.

B4: Reference Antibody (antibody, V domains shown)
VH: B1 VH with V58T, K105N, Y109Q
VL: B1 VL with H92N
As to B4, the results for the AUC in test [5] and in test [6] were 16100 and 3.05e+06, respectively.
